# Measured values reported in article PMC7264293 (2020).
# Biological target: T1, WIPI3-Δloop (human, UniProt Q5MNZ6 1-344, Blade 2 B-C loop (75-80) deleted | Blade 6 C-D loop (264-281) deleted)
# Experiment: ITC
# T1 sequence (Q5MNZ6 other isoform, or with tags, fused parts or gaps with the stated changes): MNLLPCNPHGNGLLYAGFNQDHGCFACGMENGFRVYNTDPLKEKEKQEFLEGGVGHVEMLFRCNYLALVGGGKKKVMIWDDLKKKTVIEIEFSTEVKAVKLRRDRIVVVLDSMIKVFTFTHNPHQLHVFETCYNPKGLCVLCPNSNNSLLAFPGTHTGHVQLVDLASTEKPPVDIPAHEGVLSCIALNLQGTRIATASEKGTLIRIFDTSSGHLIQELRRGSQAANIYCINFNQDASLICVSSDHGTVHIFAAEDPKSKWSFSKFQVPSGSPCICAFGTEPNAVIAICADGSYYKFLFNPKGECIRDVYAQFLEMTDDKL
row,Kd,Binder
1,36.9 µM,PRDGEPAVTQLHPGPIVVRDGYFSRPIGSTD [GB1-tagged WIR-peptide V1380A]
2,14.2 µM,PRDGEPVVAQLHPGPIVVRDGYFSRPIGSTD [GB1-tagged WIR-peptide T1382A]
3,14.1 µM,PRDGEPQVTQLHPGPIVVRDGYFSRPIGSTD [GB1-tagged WIR-peptide V1380Q]
4,75.9 µM,PRDGEPVATQLHPGPIVVRDGYFSRPIGSTD [GB1-tagged WIR-peptide V1381A]

# Biological target: T1, WIPI3-Δloop
# Experiment: ITC
# Remark: another data set of the same source
row,Binder,Kd
1,PRDGEPVVTQLHPGPQVVRDGYFSRPIGSTD [GB1-tagged WIR-peptide I1389Q],379 µM
2,PRDGEPVVQQLHPGPIVVRDGYFSRPIGSTD [GB1-tagged WIR-peptide T1382Q],37.2 µM
3,PRDGEPVVTQLHPGPIVVRAGYFSRPIGSTD [GB1-tagged WIR-peptide D1393A],44.4 µM

# Results, then the binder that gave them:
row,Kd,Binder
1,82 µM,PRDGEPVQTQLHPGPIVVRDGYFSRPIGSTD [GB1-tagged WIR-peptide V1381Q]
2,48.9 µM,PRDGEPVVTQLHPGPIVQRDGYFSRPIGSTD [GB1-tagged WIR-peptide V1391Q]
3,391 µM,PRDGEPVVTQLHPGPIVVRDGAFSRPIGSTD [GB1-tagged WIR-peptide Y1395A]
